The values below come from patent US20140134202A1 (FOLIA BIOTECH, published 2014).

The data set concerns the molecule itself. Briefly: gel filtration (Superdex 200), self-association into disks. In general terms: SEC sorts molecules by how far they enter the pores of the column.

B1: CP.DELTA.N5 PapMV coat protein (recombinant, N-terminal 5 amino acids deleted, alanine inserted at p (other)
chain: MASTPNIAFPAITQEQMSSIKVDPTSNLLPSQEQLKSVSTLMVAAKVPAASVTTVALELVNFCYDNGSSAYTTVTGPSSIPEISLAQLASIVKASGTSLRKFCRYFAPIIWNLRTDKMAPANWEASGYKPSAKFAAFDFFDGVENPAAMQPPSGLTRSPTQEERIANATNKQVHLFQAAAQDNNFASNSAFITKGQISGSTPTIQFLPPPE
notes: also called CPΔN5; CPΔN5 PapMV VLP
Consider B1, for which the binding result was “binds”.
